How the values were obtained:
[1] = target: CD95(1–66)-mCherry (human); assay: SEC; concentrated serum-free supernatants of transfected HEK cells on Sephacryl S-300 and S-200 High Resolution columns in PBS, 0.5 mL/min; fractions analysed by immunoblot with anti-DsRed
[2] = target: CD95(1–158)-mCherry (human); assay: as above

Substance	stoichiometry N [1]	stoichiometry N [2]
CD95(1–66)-mCherry (domain or fragment)	2	
CD95(1–158)-mCherry (domain or fragment)		3
